Biological target: goxDp-Dzip2 (diaphorase derived from Gluconobacter oxydans, Dzip2 association site fused at the C-terminal side) (Gluconobacter oxydans)
Assay: cell-based or functional assay

His-bmaEDH-Dzip1 (glutamic acid dehydrogenase derived from Burkholderia mallei, His tag, Dzip1 assoc (enzyme)
maximum electric power (glutamic acid fuel cell): 106 µW/cm^2
shortcircuit current density (glutamic acid fuel cell): 1230 µA/cm^2
